Test results published in patent US20210221894A1.

Biological target: recombinant human DLL3 (ELISA coat) (human) (UniProt Q9NYJ7)
Assay: ELISA, plate coated with recombinant human DLL3 0.5 µg/ml; commercial reagent mAb

Chain of recombinant human DLL3 (ELISA coat) (human) (Q9NYJ7 27-492 limits assumed): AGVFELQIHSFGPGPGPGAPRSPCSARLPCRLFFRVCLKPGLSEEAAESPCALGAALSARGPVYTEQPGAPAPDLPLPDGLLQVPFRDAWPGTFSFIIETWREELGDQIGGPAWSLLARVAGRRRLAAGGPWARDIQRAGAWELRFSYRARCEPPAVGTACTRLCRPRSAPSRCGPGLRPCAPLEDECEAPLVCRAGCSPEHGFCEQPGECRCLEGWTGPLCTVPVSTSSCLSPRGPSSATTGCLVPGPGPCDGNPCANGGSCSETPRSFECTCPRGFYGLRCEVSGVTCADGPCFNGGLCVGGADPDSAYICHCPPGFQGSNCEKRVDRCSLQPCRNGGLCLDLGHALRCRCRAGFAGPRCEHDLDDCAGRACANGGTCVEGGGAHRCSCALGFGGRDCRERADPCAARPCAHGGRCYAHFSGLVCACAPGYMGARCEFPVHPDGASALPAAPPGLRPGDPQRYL

EC50: 0.1 nM
Substance: positive control antibody for DLL3 (R&D Systems, Minneapolis, Minn., Cat #MAB4315)
